Source: IntAct's records for PubMed 24125847

B1: Sarcoplasmic reticulum histidine-rich calcium-binding protein (Homo sapiens), P23327 (parent)
chain: MGHHRPWLHASVLWAGVASLLLPPAMTQQLRGDGLGFRNRNNSTGVAGLSEEASAELRHHLHSPRDHPDENKDVSTENGHHFWSHPDREKEDEDVSKEYGHLLPGHRSQDHKVGDEGVSGEEVFAEHGGQARGHRGHGSEDTEDSAEHRHHLPSHRSHSHQDEDEDEVVSSEHHHHILRHGHRGHDGEDDEGEEEEEEEEEEEEASTEYGHQAHRHRGHGSEEDEDVSDGHHHHGPSHRHQGHEEDDDDDDDDDDDDDDDDVSIEYRHQAHRHQGHGIEEDEDVSDGHHHRDPSHRHRSHEEDDNDDDDVSTEYGHQAHRHQDHRKEEVEAVSGEHHHHVPDHRHQGHRDEEEDEDVSTERWHQGPQHVHHGLVDEEEEEEEITVQFGHYVASHQPRGHKSDEEDFQDEYKTEVPHHHHHRVPREEDEEVSAELGHQAPSHRQSHQDEETGHGQRGSIKEMSHHPPGHTVVKDRSHLRKDDSEEEKEKEEDPGSHEEDDESSEQGEKGTHHGSRDQEDEEDEEEGHGLSLNQEEEEEEDKEEEEEEEDEERREERAEVGAPLSPDHSEEEEEEEEGLEEDEPRFTIIPNPLDRREEAGGASSEEESGEDTGPQDAQEYGNYQPGSLCGYCSFCNRCTECESCHCDEENMGEHCDQCQHCQFCYLCPLVCETVCAPGSYVDYFSSSLYQALADMLETPEP
partner: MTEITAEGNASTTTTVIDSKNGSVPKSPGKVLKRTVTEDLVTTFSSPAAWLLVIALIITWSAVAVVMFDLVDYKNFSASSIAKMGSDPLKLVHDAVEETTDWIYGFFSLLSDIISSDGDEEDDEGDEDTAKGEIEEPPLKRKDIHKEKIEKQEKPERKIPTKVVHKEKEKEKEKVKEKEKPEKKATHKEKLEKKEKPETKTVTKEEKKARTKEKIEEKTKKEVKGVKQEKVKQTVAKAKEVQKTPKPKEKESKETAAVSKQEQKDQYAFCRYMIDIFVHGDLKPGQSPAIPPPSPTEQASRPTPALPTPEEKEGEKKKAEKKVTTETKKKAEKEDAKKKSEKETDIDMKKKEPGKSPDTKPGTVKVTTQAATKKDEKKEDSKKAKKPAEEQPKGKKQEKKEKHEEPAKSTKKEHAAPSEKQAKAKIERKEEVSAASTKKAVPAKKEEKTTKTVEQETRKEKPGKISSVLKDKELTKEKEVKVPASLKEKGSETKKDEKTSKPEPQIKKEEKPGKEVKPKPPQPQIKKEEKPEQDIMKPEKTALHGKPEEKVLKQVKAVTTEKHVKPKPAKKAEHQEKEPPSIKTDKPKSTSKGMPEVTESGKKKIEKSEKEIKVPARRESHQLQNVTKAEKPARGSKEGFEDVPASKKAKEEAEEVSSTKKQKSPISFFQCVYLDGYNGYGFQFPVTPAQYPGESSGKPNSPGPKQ
B2: Sarcoplasmic reticulum histidine-rich calcium-binding protein (Homo sapiens), P23327 (parent)
chain: B1 chain
partner: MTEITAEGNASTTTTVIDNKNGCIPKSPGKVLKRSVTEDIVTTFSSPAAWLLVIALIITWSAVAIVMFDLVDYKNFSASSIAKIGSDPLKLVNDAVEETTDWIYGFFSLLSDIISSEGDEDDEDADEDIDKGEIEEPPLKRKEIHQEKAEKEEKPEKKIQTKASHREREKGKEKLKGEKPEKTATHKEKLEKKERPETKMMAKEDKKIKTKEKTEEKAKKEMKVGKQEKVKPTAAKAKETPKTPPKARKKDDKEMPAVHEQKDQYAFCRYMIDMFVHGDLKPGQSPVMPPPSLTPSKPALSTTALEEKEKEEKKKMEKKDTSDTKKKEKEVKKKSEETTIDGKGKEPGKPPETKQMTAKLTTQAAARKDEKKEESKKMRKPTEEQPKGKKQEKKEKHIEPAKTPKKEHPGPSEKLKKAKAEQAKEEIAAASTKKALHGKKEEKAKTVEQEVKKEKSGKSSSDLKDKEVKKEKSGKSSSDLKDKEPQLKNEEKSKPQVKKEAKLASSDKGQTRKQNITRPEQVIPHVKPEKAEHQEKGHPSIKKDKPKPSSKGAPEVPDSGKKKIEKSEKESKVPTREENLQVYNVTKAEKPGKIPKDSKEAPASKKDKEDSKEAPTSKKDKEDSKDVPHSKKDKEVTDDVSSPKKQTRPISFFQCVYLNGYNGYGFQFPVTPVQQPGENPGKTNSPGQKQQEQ

Variants of: B1
Conditions: with trdn_rabit TRDN

| effect of a mutation on the interaction | Variant |
| --- | --- |
| decreasing interaction | S96A |

Variants of: B2
Conditions: with trdn_mouse Trdn

| effect of a mutation on the interaction | Variant |
| --- | --- |
| decreasing interaction | S96A |
